# Data: patent US20030022247A1, “Substance which inhibits binding of information transfer molecule for 1175-tyrosine phosphorylated KDR/FLK-1 and usages of the same” (priority 2000, published 2003)
# Square brackets hold non-standard residues; d marks the D form. Ends that are not written are not given here. pY = N[C@@H](Cc1ccc(OP(=O)(O)O)cc1)C(=O)O
# B1: phospholipase C-γ (PLC-γ) (enzyme, mouse, UniProt Q62077 2-1302, looked up)
# chain: AGVATPCANGCGPGAPSEAEVLHLCRSLEVGTVMTLFYSKKSQRPERKTFQVKLETRQITWSRGADKIEGSIDIREIKEIRPGKTSRDFDRYQEDPAFRPDQSHCFVILYGMEFRLKTLSLQATSEDEVNMWIKGLTWLMEDTLQAATPLQIERWLRKQFYSVDRNREDRISAKDLKNMLSQVNYRVPNMRFLRERLTDLEQRSGDITYGQFAQLYRSLMYSAQKTMDLPFLETNALRTGERPEHCQVSLSEFQQFLLEYQGELWAVDRLQVQEFMLSFLRDPLREIEEPYFFLDELVTFLFSKENSVWNSQLDAVCPDTMNNPLSHYWISSSHNTYLTGDQFSSESSLEAYARCLRMGCRCIELDCWDGPDGMPVIYHGHTLTTKIKFSDVLHTIKEHAFVASEYPVILSIEDHCSIAQQRNMAQHFRKVLGDTLLTKPVDIAADGLPSPNQLRRKILIKHKKLAEGSAYEEVPTSVMYSENDISNSIKNGILYLEDPVNHEWYPHYFVLTSSKIYYSEETSSDQGNEDEEEPKEASSSTELHSSEKWFHGKLGAGRDGRHIAERLLTEYCIETGAPDGSFLVRESETFVGDYTLSFWRNGKVQHCRIHSRQDAGTPKFFLTDNLVFDSLYDLITHYQQVPLRCNEFEMRLSEPVPQTNAHESKEWYHASLTRAQAEHMLMRVPRDGAFLVRKRNEPNSYAISFRAEGKIKHCRVQQEGQTVMLGNSEFDSLVDLISYYEKHPLYRKMKLRYPINEEALEKIGTAEPDYGALYEGRNPGFYVEANPMPTFKCAVKALFDYKAQREDELTFTKSAIIQNVEKQDGGWWRGDYGGKKQLWFPSNYVEEMINPAVLEPEREHLDENSPLGDLLRGVLDVPACQIAIRPEGKNNRLFVFSISMPSVAQWSLDVAADSQEELQDWVKKIREVAQTADARLTEGKMMERRKKIALELSELVVYCRPVPFDEEKIGTERACYRDMSSFPETKAEKYVNKAKGKKFLQYNRLQLSRIYPKGQRLDSSNYDPLPMWICGSQLVALNFQTPDKPMQMNQALFMAGGHCGYVLQPSTMRDEAFDPFDKSSLRGLEPCVICIEVLGARHLPKNGRGIVCPFVEIEVAGAEYDSTKQKTEFVVDNGLNPVWPAKPFHFQISNPEFAFLRFVVYEEDMFSDQNFLAQATFPVKGLKTGYRAVPLKNNYSEDLELASLLIKIDIFPAKENGDLSPFSGISLRERASDASSQLFHVRAREGSFEARYQQPFEDFRISQEHLADHFDSRERSTSDGPSSATNLIEDPLHDKLWKCSL
# notes: whole, on cells; Endogenous intracellular PLC-γ co-precipitated with KDR/Flk-1 from MSS31 cell extracts
# How the values were obtained:
# [1] = test system: various cancer cells transplanted into mice; conditions: cited from earlier work
# [2] = biological target: T1, binding of the auto-phosphorylated KDR/Flk-1 and PLC-γ (Homo sapiens, UniProt P19174+P35968); test: In vitro binding of GST-PLC-γ C-SH2 to KDR/Flk-1 from NIH3T3-KDR cell extract; assay type: biochemical; conditions: coexisting with GST-PLC-γ C-SH2 beads and extract of VEGF-stimulated NIH3T3-KDR
# T1 construct: a fusion protein of GST and SH2 domain of the C-terminal side of PLC-γ (GST-PLC-γ C-SH2); host or cells: NIH3T3-KDR cell extract (KDR/Flk-1)
# Method: Onto glutathione-Sepharose 4B beads (manufactured by Amersham Pharmacia Biotech), 1.5 μg of GST, a fusion protein of GST and SH2 domain (2 domains) of PLC-γ (GST-PLC-γ SH2-SH2), a fusion protein of GST and SH2 domain of the N-terminal side of PLC-γ (GST-PLC-γ N-SH2) and a fusion protein of GST and SH2 domain of the C-terminal side of PLC-γ (GST-PLC-γ C-SH2) (all manufactured by Santa Cruz Biotechnology Inc.) was immobilized respectively, and the cell extracts were added thereto, followed by incubation at 4° C. for 2 hours. The beads were washed three times with a cooled cell extraction buffer and heated in an SDS sample buffer to dissolve the protein bound to the beads, and then SDS-PAGE was carried out. The KDR/Flk-1 bound to each of the added proteins was detected by immunoblotting using the anti-KDR/Flk-1 antibody. The KDR/Flk-1 was detected in the VEGF-stimulated cell with GST-PLC-γ SH2-SH2 and GST-PLC-γ C-SH2, but KDR/Flk-1 was not detected with GST-PLC-γ N-SH2.
# The same test of (2) was carried out by allowing the anti-PY1175 antibody and the PY1175 peptide to coexist at the time of the reaction of GST-PLC-γ C-SH2-immobilized beads with the cell extract. As a result, KDR/Flk-1 was not detected even in the VEGF-stimulated cell, and binding of the auto-phosphorylated KDR/Flk-1 and PLC-γ was inhibited by the anti-PY1175 antibody and the PY1175 peptide.
# [3] = biological target: T2, 1175-tyrosine phosphorylated KDR/Flk-1 (Homo sapiens, UniProt P35968); test: Tissue immunostaining of human umbilical cord vein endothelial cells; assay type: cell-based; conditions: 1 μg/ml peptide; cells 5 minutes after the VEGF stimulation
# T2 construct: expressing endogenous KDR/Flk-1; host or cells: human umbilical cord vein endothelial cells (HUVEC)
# Method: After blocking the fixed cells for 30 minutes with PBS containing 1% goat serum, tissue immunostaining was carried out using the anti-PY1175 antibody. The detection was carried out by fluorescence microscopic observation 30 minutes after treatment with an FITC-labeled anti-rabbit IgG antibody (manufactured by Cappel) diluted to 1/100. […] Accordingly, the anti-PY1175 antibody was useful for the detection of the 1175-tyrosine phosphorylation of KDR/Flk-1 by not only immunoblotting but also tissue immunostaining.
# Flt-1 = Flt-1 (Homo sapiens, UniProt P17948); conditions: VEGF binding to Flt-1; cited from earlier work
# [4] = biological target: T3, mutated KDR/Flk-1 Y1175F (1175-tyrosine replaced by phenylalanine) (human, UniProt P35968 20-1356); test: immunoprecipitation with anti-KDR/Flk-1 antibody, immunoblotting with anti-PLC-γ antibody
# T3 construct: Expressed in MSS31 cells by an adenovirus vector, VEGF-stimulated; cell extract; Phosphorylation at other tyrosines not specified
molecule,measurement,setting,value
Cc1cc(C)c(/C=C2\C(=O)Nc3ccccc32)[nH]1 [SU5416],"angiogenesis, growth or metastasis of cancer cells",[1],"inhibits angiogenesis, growth or metastasis"
"PY1175 peptide: SEQ ID NO:1: cysteine added to N-terminus of positions 1171 to 1180 of human KDR/Flk-1, tyrosine 1175 phosphorylated (CDGKD[pY]IVLPI)",inhibition of binding of auto-phosphorylated KDR/Flk-1 and PLC-γ (GST-PLC-γ C-SH2),[2],inhibited
same,inhibition of anti-PY1175 antibody staining by coexisting peptide,[3],staining was inhibited
"Y1175 peptide: SEQ ID NO:2: the same amino acid sequence of the PY1175, but the tyrosine is not phosphorylated (CDGKDYIVLPI; a peptide SEQ ID NO1 without phosphorylation) [reference compound]",inhibition of binding of auto-phosphorylated KDR/Flk-1 and PLC-γ (GST-PLC-γ C-SH2),[2],inhibition was not found
vascular endothelial growth factor [VEGF],Kd,Flt-1,0.02 nM
B1,binding result,[4],no binding
